According to publication PMC5548801, “Characterization of C-terminal structure of MinC and its implication in evolution of bacterial cell division” (Scientific Reports, 2017):
Values belong to the molecule of their own block, whether it stands above or below them.

Experiments:
[1] = target: MBP-EcMinC-Aahelix3 (E. coli | A. aeolicus) (UniProt P18196); assay: SEC-MALS; MALLS and SEC (Fig. S4)
[2] = target: the molecule itself; assay: crystal structure; hanging-drop vapor diffusion at 20 °C, 0.1 M Tris-HCl pH 7.2, 0.44 M sodium/potassium tartrate; 3.0 Å; dimer in the asymmetric unit
[3] = target: the molecule itself; assay: SEC-MALS; MALLS and SEC (Fig. S4)

stoichiometry N [1]: 2
Molecule: MBP-EcMinC-Aahelix3 (from UniProt P18196 1-231; O67034 82-201)

B1: C-terminal domain of MinC from Escherichia coli (EcMinCCTD) (domain or fragment, E. coli)
chain: PVTKTRLIDTPVRSGQRIYAPQCDLIVTSHVSAGAELIADGNIHVYGMMRGRALAGASGDRETQIFCTNLMAELVSIAGEYWLSDQIPAEFYGKAARLQLVENALTVQPLN
notes: MinC, E. coli K12; C-terminal domain, a degradation fragment of ~13 kD of full-length MinC-6xHis; residues 122-231 are named for the superposition with TmMinCCTD; Crystals grew from full-length MinC-6xHis (pET22b-MinC) that was degraded over 3-6 weeks; source: E. coli BL21(DE3), full-length MinC-6xHis purified (Ni-agarose, SEC); degraded to the C-terminal domain during crystallization; not shown: …
binding result [2]: binds

B2: MBP-EcMinC (natural protein, E. coli, UniProt P18196 1-231, looked up)
chain: MSNTPIELKGSSFTLSVVHLHEAEPKVIHQALEDKIAQAPAFLKHAPVVLNVSALEDPVNWSAMHKAVSATGLRVIGVSGCKDAQLKAEIEKMGLPILTEGKEKAPRPAPTPQAPAQNTTPVTKTRLIDTPVRSGQRIYAPQCDLIVTSHVSAGAELIADGNIHVYGMMRGRALAGASGDRETQIFCTNLMAELVSIAGEYWLSDQIPAEFYGKAARLQLVENALTVQPLN
notes: called full-length EcMinC; Modified pET-28b with MBP in place of the N-terminal His-tag; source: E. coli BL21(DE3), purified (Ni-agarose, SEC); not shown: MBP, N-terminal, kept
stoichiometry N [3]: 2
